The record followed here is the DeepSol protein solubility set.

The data set is described as follows: soluble on expression in E. coli; label from the status in PepcDB or PDB records.
On to “GHMIARGKFRSLTLINWNGFFARTFDFDELVTTLSGGNGAGKSTTMAGFVTALIPDLTLLNFRNTTEAGSTSSSRDKGLYGKLKAGVCYAVLETVNSRAQRIITGVRLQQIAGRDKKVDIRPFSLQNVPMTDSVISLFTEQVANKARVLSLNDLKEKFEETAVTFKPYHSITDYHSFMFDLGILPKRLRSSSDRNKFYKLIEASLYGGISSVITKSLRDYLLPENSGVRQAFQDMEAALRENSGGSGGSISAESVANILRKTIQREQNRILQLNQGLQNIAFGQVKGVRLVVNIRDTHSILLNALSDQHEQHKDLFESQKLSFSEALAMLYKRINPHIELGQRMPQTIGEELLDYRNYLDLEVETLRGAYGWMRAESSALSTGEAIGTGMSILLMVVQSWEEESRRMRAKDILPCRLLFLDQAARLDAMSINTLFELCERLDMQLLIAAPENISPERGTTYKLVRKILANQEYVHVVGLKGFG”, for which the “soluble on expression in E. coli” value is recorded as “soluble”.

On to “MSEITIGVLSLQGDFEPHINHFIKLQIPSLNIIQVRNVHDLGLCDGLVIPGGESTTVRRCCAYENDTLYNALVHFIHVLKKPIWGTCAGCILLSKNVENIKLYSNFGNKFSFGGLDITICRNFYGSQNDSFICSLNIISDSSAFKKDLTAACIRAPYIREILSDEVKVLATFSHESYGPNIIAAVEQNNCLGTVFHPELLPHTAFQQYFYEKVKNYKYSLEHHHHHH”, for which the “soluble on expression in E. coli” value is “soluble”.

Regarding “SGIMNIILQDNVQEIEGVVVTGYQQIKNRVFTGAAASVKLDEIKLNGVSDVSRMLEGRIAGLSIQNVTGSFGAAPRINIRGGASIMGNVQPLWVIDGAVYEDLVSLTLDQLASGDAVTLISSAVAGLNASDIEDIQVLKDASATSIYGARALNGVIVITTRSGKRNA”, the “soluble on expression in E. coli” value was “not soluble”.

As to “LLEQESLPATGELYEHAACGLLVTLPNGTIERANLTFCRWLGLEREAVIGRRFQDLLNLAGKVFLQTHWAPLLQTQGSIAEVKVELIHADGRSVPMMLNAIRREYPSGFLHEVAVFLAEE”, the “soluble on expression in E. coli” value is “not soluble”.

“MGSDKIHHHHHHMRYAFWNNKGGTGKTSLAFQSICRFAELNPHARILAIDVCPQANLSELMLGGLTNQGSARLMQRQGQVPRCSIGGYFQLRLPAPYTRPAFTASDFITTPNQYNPLIPGNIDLVCGDPLLELQANAVNTLANAQIPGTNTWIAVIDWISDFLESAEGYDYVFFDANPSFSIYTQIALSATNRVILPVMADDSSRRAIQNAFSLIYGLRLPSPIYATYNFATKLREAERPLPQVHLIPKNRLTQYMGPASAFYAVLAAIDQDVAGLLVQRPDLFTFADVADGVVDVRDFQTTGVVSYAKGAPFSQLRTGRLDIGGHRVRVDADMRQNCIDAIDGLVDRIE”: the “soluble on expression in E. coli” value is “not soluble”.

“MGSDKIHHHHHHMTKNNEAGWNLDNSYATLPHSFYTEIPPTPVSSPELVKLNHSLAISLGFNPEELKKETEIAIFAGNALPEGAHPLAQAYAGHQFGHFNMLGDGRALLIGEQITPSGKRFDIQLKGSGPTPYSRRGDGRAALGPMLREYIISEAMYALDIPTTRSLAVVTTGEPTYRETKLPGAILTRVASSHIRVGTFQYAAARGSIEDLQSLADYTIKRHYPEIEDPENRYTALLQEVIKKQASLIAKWQLVGFIHGVMNTDNITISGETIDYGPCAFMDHYDQGTVFSSIDTQGRYAYGNQPYMAAWDLARLAESLIPILHEDEEEALKIAQDEISKFSVQYENLWFLGMKKKLGLFSNEEQDHSLIEQLLKMMEKYKADYTNTFRSLTLNTLENTPLFDSSEFKEWYKLWQSRLERQDESKENAYEMMKNNNPSIIPRNHRVEEALEAAVTNGDYSVMEKLLEALANPYAYATDQEEYCVTPAPTNRPYRTFCGT”: the “soluble on expression in E. coli” value is “not soluble”.

In the case of “MPKVNLYATFRDLTGKSQLELPGATVGEVLENLVRAYPALKEELFEGEGLAERVSVFLEGRDVRYLQGLSTPLSPGATLDLFPPVAGGGFERTFGAFPPWLLERYLEEWGGTREGEGVYRLPGAVVRFREVEPLKVGSLSIPQLRVEVEGEEAERWFERIAFAASRGGG”, the “soluble on expression in E. coli” value is listed as “soluble”.

Take “AQKPWEKDAWEIPRESLKLEKKLGAGQFGEVWMATYNKHTKVAVKTMKPGSMSVEAFLAEANVMKTLQHDKLVKLHAVVTKEPIYIITEFMAKGSLLDFLKSDEGSKQPLPKLIDFSAQIAEGMAFIEQRNYIHRDLRAANILVSASLVCKIADFGLARVIEDNEYTAREGAKFPIKWTAPEAINFGSFTIKSDVWSFGILLMEIVTYGRIPYPGMSNPEVIRALERGYRMPRPENCPEELYNIMMRCWKNRPEERPTFEYIQSVLDDFE”: the “soluble on expression in E. coli” value is listed as “soluble”.

For “GSELETAMETLINVFHAHSGKEGDKYKLSKKELKELLQTELSGFLDAQKDADAVDKVMKELDEDGDGEVDFQEYVVLVAALTVACNNFFWENS”, the “soluble on expression in E. coli” value was “soluble”.

For the sequence “MSLYQLEDDSLMLHNDLYQINMAESYWNDNIHEKMAVFDLYFRKMPFNSGYAVFNGLKRVIDFIEHFGFSESDLEYLKSIGYKDDFLSYLKDLKFTGSIRSMQEGELCFGNEPLLRVEAPLIQAQLIETILLNIVNFHTLITTKASRIRQIASNDKLMEFGTRRAQEIDAALWGARAAYIGGFDSTSNVRAGKLFGIPVSGTHAHAFVQTYGDEYVAFKKYAERHKNCVFLVDTFHTLKSGVPNAIKVAKELGDKINFVGIRLDSGDIAYLSKEARRMLDEAGFTETKIIASNDLDEETITSLKAQGAKVDSWGVGTKLITGYDQPALGAVYKLVAIENEEGSYSDRIKLSNNAEKVTTPGKKNVYRIINKKTGKAEGDYITLENENPYDEQPLKLFHPVHTYKMKFIKSFEAIDLHHNIYENGKLVYQMPTEDESREYLAQGLQSIWDENKRFLNPQEYPVDLSKACWDNKHKRIFEVAEHVKEMEEDNEEGHHHHHH”, the “soluble on expression in E. coli” value is “soluble”.

Consider “MAHHHHHHMLDDLKTAYTPAVASKICYVASQLRIDATKGQPYTAVLEATMTAEGEQAMEVASLARIVHSCLVLRSGHLHEVLFTFIPFLREKAGTMDAVTTAVLINAYGRSGVHHPGLYKALCDNGATVLKDPRVPLAHIANVAYAVSRVKFLHPALMLTLRDHALRKVAEASPIISLTVLDAFTELRQIDDDLFNAYEQRLLGQLNELQAPLMASLVSCVVRAGRGKAEVMESLGARTVAIADTFDAASIAKVTNAYYEADVASEDVLGALAERACKVAADFRADEIATVLNALSAFDLFDAELFPLLASRLVALHRQGGYVDVADAAVILSSFAAVQERNDELIYVCTQLFAAYPGVAMDPAVRVNALWACASLNVHNEAQTKMLEEVRATPSLVMWESKTDTLPKAKATLEERTRFLAKVYGITISSSGAR”, for which the “soluble on expression in E. coli” value is on record as “soluble”.

Turning to “MWNETVEHENAGNGWAAGESSFMTDRKPDSKATTLGERLPVPVTISNLIEHFSAQDDKYVVGTFRFATVLTVGIVKDISQDGTTYTYDLCDPNNTEMEYRTLKYDNEGSTFDHSSIVEGTRVRAIGKLKGFDGNNTIMLFNITPVEDDKDFTIFELEAEAARLFFQKNVSEKLKSVDSDGFQGMLAPPKSRMSQTSHQSSQGSDTKERLYAQPQKVMTGANQGDVLRERITAVLMAVPEGSRDEGRHVSWIAEQIQETNISIVRKCVGEMVENGLVYTTVDEETVSAI”, the “soluble on expression in E. coli” value is “not soluble”.

Consider “MTKVYIENYGCARNRADGEIMAGLLLSSGYEIVEGEENADIVVVNSCAVKDPTEVKIARRIRELLDRGKKVIVTGCLPHVNPDAIDERVSAVLGVKSIDRIVQAVEYALRGEKLISVPDWRKRNLDKLDFPRLSPRGVHFILPIAEGCLNGCTYCATRSARGVLKSYSPEKIVEWVKWAIRQGYKEIWLSAEDTGCYGFDIGTNLAKLLDEITAIEGEFRIRVGMMNPNHVLKFLDELIEAYKDEKVYKFLHLPVQSGDNEILRRMGRTYTVEEFEEIVNAFRREFPDLNLHTDIIVGFPGESEEAFQRSLELIKRIKPDKVNVSRYSPRPGTIAAKWKQLPGWVVKERSRIMHRVRLQISYEINQRYVGRKVDILVHGEGKKGNVDAVTMNYKHIIIPRGEKGEFARAKVNGATSTYLLGEIVD”, for which the “soluble on expression in E. coli” value is given as “soluble”.

With “MRQQTCTTVTLRQRPIRNGRISLYLDYYPAVRNPKTMKLSRREYLGFYIYATPKNAIELDYNNEILAKAELIRCRRQEAVINEEFGFMDRHKMRADFMAYFKEVCRKKDHKWHIVYLHFEKFVNGKCMFGEITVDLCNRFRDYLLHARQLKHTDKMVSRNSAASYFSLFRGVLKLAYRDKYLRENPNDFLEKIESRDIHKEFLTQDELKTLASTPCDIPVLRNASLFSCLTGLRISDILNLKWENLCTAPDLGHCIRLRTQKTQTEALLPISYEAYALCGEPGTGKVFKELRRCMTGYPLKAWIKKAGIQKHITFHCLSHSKLFYLLNISELSILKNVTANDLETSYILFLSQLCNIQRTL”, the “soluble on expression in E. coli” value is “not soluble”.

Regarding “MVENLKQLQERVAVSDGRAKADLVIKNGRIINVFSGEIMDGDIAIKNGYIAGIGSFPDAEKIIDAAGAFIAPGFIDAHVHVESAMVTPAEFARVLLPNGVTTIVTDPHEIANVAGEKGIEFMLEDAKGAPLDMFVMLPSSVPATEGEHNGETLHAEKLHPLYRHEKVIGLAEVMDFPSVAKGSDDILRKIIDAKKEGGRIDGHGAGLTSADLNNYLAVGIRTDHESTTAKEATDRLRAGMFVMLREGTVGRDLLQTIPAVSEKNSHRFCFCTDDKLINDLITEGSINYNIKLAIKNGIDPITAIQMATINAANCHNLPYLGAVAAGYQADIVFLTDIETVEISKVLKNGEVVVDNGVRNEAAFKQQAAVPFVSPPINHHVHLQDLALPLTKETCYVIGMQPNSLFTEKRIEQVTIQGGKFVPTVENDLLKMAVVERHHDTGCVGVGIVKGFGLTEGAIATTVAHDSHNIVAVGVSDEAMKAAIDHITQTGGGIAVVNGAGQVLHDLALPIAGLLSDKSYEEVENDLAGLLNAFKQISTANGFDPFLTLSFLTLPVIPELKLTDQGLFDFATFQIISNEVN”, the “soluble on expression in E. coli” value was “not soluble”.

In the case of “MGSDKIHHHHHHMHVGIFADGGYEKGMGHVVRMKRLAEGLKQRCLITFYTNQDSEAFLHEEHWQVIVKPELQQHEFILREIKSKKLDLLLFDILGAPAELLKKIKTETDAKIVLFEEKNGKSIQYSDAVINGIYGDIRSRVYVQGNTRIYEGPDYLILHPAFQAAREDYTLKKDCRNILVALGGSDPKQLIFKVLAAADQVPDIKDKNMMFVMGSASPHQEAVRRRIEKKPQYKMIEQTNDMAGLMKQADAAIVAGGISLYEAICIGVPCLVLSQVEHQTATAKTFADQGAALDLGLGELVPDETLIYQMSRIMSSYPLRLSLHKGGRPLVDGKGIIRVTAILQDLYEQEI”, the “soluble on expression in E. coli” value was “not soluble”.

Regarding “MGSDKIHHHHHHMFETITPESIKENILNELALVDVREGSYTNNLVSPTALAIWKLYDSLNALIPMVYVDETSGVYIDKKAAHYGITRKSGTKATAVLHFTGVDGKVVPKGTVFLTGDGLEFVTESAVTITAGAARTTAIAAEAGEAYNVPGGSITQQIVSISGLTGVTNDAAVGGTDPESDKSLVERLYAYLRKPATSGNVYHYEQWALAVDGVGGVKVAPLWNGPGTVKVLIVSPAKAPVDQEVVTRCADHIQQNRPIGAAVTVESASALMINVEATITIESTTTKSAVKEAFANSLNAYLQSIAFEKYELIYNRLAFMLLDIEGVIDYEDLTVNGGTSNITIAANEVPVAGMVVIS”, the “soluble on expression in E. coli” value is “not soluble”.

In the case of “MISQVRIMDVIKPLGSFIQQDGMPVFGHLSAIPRSLDLESFQYLNEMDNPVSKWRKHFDYKQFQFVSLVTPDYVVGIAIADIRYLASGFCYLFDIKRNALTEQQWLKPCQLGYQTQPSSWLSKAHLANNTIQFSIEEGQWHVQFVTPSVNANITLHPQPQSLPLMLSTPTGYSGWTYTQKHNAMTVTGNLFILGEEQDLSQVAAGYDFSAGYMRRETSWRWASINHKDGDKSLGLNLAAGVNETGFCENVLWVDGERHLLNPVQFQFSRQNPRTDWRITSEDGCVDLVFEPINQRSEKKNFWFLKSNFRQYIGHFSGFVVDGNGSKHELDGVVGLTEDHYAKW”, the “soluble on expression in E. coli” value is reported as “not soluble”.
